The target in assay [1] is T1, human Adhesion G protein-coupled receptor E2 (ADGRE2) (human, UniProt Q9UHX3 24-823).
T1 construct: No signal peptide limits are stated; also called EMR2; CD312
T1 sequence: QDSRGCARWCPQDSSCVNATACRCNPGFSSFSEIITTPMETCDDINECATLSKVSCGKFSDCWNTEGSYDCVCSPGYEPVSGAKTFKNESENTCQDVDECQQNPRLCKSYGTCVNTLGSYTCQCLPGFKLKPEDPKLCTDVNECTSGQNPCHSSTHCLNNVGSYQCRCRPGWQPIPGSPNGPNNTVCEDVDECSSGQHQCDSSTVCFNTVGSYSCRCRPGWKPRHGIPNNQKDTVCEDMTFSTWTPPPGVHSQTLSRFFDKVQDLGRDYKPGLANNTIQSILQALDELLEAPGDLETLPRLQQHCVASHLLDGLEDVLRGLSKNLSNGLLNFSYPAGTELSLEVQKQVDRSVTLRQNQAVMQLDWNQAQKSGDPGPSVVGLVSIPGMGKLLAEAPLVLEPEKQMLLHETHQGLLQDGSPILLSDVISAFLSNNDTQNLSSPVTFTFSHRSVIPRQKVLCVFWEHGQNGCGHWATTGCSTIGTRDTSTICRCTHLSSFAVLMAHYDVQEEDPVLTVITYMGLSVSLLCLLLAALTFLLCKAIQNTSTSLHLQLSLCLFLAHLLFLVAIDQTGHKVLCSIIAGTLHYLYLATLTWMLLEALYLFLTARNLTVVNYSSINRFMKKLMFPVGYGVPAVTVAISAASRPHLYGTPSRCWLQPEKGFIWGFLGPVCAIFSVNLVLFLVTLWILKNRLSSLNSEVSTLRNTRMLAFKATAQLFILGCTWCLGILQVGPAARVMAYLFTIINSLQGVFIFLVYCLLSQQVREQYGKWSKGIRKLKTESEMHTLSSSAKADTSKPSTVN
The experiment in a line: flow cytometry, scFv titration on EL4 cells overexpressing ADGRE2. The procedure:
This example illustrates the on-cell binding for the anti-ADGRE2 scFvs as measured by flow cytometry. The on-cell binding for the anti-ADGRE2 scFvs was assessed by flow cytometry on the E4 cells overexpressing ADGRE2. Each of the scFvs were tested for binding to ADGRE2 and compared to the Reference 1 mAb. Briefly, 100,000 cells per well, were plated in 96 well V bottom plate, scFvs were diluted to 200 nMscFv then 1:4 serially down to 0.01 nM. A dose dependent titration of the scFvs validated recombinant scFvs folding and binding to ADGRE2. EC₅₀ affinities were compared in order to better interpret any differences seen in-vivo that might be caused by variations in affinities resulting from the humanization process Data was analyzed using Prism software, using a four parameter regression. The approximate EC₅₀ values were determined using equation: Y=Bottom+(Top−Bottom)/(1+10\hat{ }((Log EC₅₀−X)*HillSlope)) where the fitted parameters are defined as follows: Bottom, the lower plateau describing minimum binding achievable; Top, the upper plateau describing the maximum binding achievable; Log EC50, the inflection point of the dose response curve also known as the concentration producing a half-maximal response; and Hill-Slope, the slope of the dose response curve.

The next assay concerns the target T2, ADGRE5 (human, UniProt P48960 21-835).
T2 construct: whole, on cells
T2 sequence (looked up): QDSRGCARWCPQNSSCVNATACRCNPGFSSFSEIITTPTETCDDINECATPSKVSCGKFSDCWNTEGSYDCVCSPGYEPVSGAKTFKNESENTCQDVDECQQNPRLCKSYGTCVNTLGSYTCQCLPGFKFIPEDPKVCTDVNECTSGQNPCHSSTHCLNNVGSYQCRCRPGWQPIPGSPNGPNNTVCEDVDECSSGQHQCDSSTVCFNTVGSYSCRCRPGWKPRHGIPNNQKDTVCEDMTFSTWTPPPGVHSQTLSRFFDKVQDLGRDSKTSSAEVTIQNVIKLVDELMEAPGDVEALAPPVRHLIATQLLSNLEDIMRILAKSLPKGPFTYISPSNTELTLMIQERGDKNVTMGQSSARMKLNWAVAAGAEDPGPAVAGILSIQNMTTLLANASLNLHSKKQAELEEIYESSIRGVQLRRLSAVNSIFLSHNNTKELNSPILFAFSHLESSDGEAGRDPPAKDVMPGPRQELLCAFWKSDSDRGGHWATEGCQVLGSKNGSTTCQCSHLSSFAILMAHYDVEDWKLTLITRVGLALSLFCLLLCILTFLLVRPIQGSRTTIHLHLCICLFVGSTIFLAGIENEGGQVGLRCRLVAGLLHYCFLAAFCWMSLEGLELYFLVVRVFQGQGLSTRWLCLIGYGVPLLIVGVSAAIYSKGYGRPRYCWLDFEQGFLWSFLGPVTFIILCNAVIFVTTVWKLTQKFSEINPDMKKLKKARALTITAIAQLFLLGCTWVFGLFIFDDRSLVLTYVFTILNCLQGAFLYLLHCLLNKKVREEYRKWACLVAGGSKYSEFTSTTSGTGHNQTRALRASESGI
Briefly: cell microarray screen on HEK293 cells overexpressing human membrane proteins. The procedure: (§1) The off-target binding interactions of ADGRE2 scFv (ADGRE2-A) and CLEC12A scFv (CLEC12A-A) to human plasma membrane proteins were carried out in a 4-phase approach: (1) pre-screening to determine the optimal concentrations of purified recombinant ADGRE2 scFv-Fc and CLEC12A scFv-Fc test proteins for the screening; (2) screening for binding of the test proteins against fixed HEK293 cells overexpressing 5,474 full-length human plasma membrane proteins and cell surface tethered human secreted proteins and 371 human cell surface heterodimers, which identified library hits; (3) confirmatory/specific screens using fixed-cell and live-cell microarrays; (4) flow cytometry-based follow-on study to investigate further identified test protein-specific interactions on live cells; and (5) cell-to-cell binding assays to confirm positive hits. The table below summarizes the off-binding data for ADGRE2 scFv and CLEC12A scFv.

The next assay has as its target T3, ADGRE1 (human, UniProt Q14246 21-886).
T3 construct: whole, on cells
T3 sequence (looked up): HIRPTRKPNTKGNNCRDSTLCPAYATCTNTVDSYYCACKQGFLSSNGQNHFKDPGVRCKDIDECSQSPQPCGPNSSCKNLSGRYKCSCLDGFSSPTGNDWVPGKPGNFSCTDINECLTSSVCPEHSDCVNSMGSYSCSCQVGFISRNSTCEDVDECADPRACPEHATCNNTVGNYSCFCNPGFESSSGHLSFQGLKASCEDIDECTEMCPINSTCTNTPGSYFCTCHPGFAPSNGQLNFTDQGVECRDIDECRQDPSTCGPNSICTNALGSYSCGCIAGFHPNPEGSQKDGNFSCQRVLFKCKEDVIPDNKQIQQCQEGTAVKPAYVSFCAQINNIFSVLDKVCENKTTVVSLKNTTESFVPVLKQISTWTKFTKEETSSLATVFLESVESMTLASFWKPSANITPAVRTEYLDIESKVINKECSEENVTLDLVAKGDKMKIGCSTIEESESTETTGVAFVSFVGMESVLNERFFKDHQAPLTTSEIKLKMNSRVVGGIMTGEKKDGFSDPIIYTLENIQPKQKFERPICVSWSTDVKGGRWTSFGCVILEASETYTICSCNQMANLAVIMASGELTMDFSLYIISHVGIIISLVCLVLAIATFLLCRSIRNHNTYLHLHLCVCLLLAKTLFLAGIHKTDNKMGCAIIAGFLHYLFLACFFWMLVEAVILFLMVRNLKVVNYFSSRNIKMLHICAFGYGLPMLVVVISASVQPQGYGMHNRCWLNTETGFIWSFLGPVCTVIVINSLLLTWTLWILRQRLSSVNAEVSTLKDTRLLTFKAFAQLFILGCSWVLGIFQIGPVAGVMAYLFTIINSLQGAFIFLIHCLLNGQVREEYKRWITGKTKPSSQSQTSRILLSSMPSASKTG
The description is as above. The protocol: as §1

The next assay concerns the target T4, ADGRE3 (human, UniProt Q9BY15 22-652).
T4 construct: whole, on cells
T4 sequence (looked up): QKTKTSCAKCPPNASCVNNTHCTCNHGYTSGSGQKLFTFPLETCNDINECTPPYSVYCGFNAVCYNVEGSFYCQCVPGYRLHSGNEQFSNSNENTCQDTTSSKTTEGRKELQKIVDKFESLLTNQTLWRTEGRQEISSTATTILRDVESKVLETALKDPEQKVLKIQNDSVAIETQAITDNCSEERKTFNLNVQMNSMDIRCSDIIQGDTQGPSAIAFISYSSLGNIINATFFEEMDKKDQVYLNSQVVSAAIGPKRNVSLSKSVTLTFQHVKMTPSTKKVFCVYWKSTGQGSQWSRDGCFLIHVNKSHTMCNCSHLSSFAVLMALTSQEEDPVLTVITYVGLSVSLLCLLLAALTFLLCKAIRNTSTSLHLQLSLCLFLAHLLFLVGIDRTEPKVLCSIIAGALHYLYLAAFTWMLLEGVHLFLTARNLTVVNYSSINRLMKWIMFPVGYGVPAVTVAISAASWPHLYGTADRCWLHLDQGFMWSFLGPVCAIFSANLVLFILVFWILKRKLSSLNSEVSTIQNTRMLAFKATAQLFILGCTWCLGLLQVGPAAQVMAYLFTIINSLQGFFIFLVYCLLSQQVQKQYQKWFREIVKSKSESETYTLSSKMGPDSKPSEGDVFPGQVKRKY
Described as above. The protocol: as §1

Substitutions are numbered along the chain they refer to.

What is called EC50 is the concentration that produces a half-maximal response. A high value points to lower potency in that assay.

B1: ADGRE2-C scFv (scFv)
scFv: QVQLQQSGAEVKKPGASVKLSCKASGYTFTNYWMQWVRQAPGQGLEWIGAVYPGDGDTRYTQKFQGRATLTADTSTSTVYMEVSSLRSEDTAVYYCARGFTAYGMDYWGQGTTVTVSSGGGGSGGGGSGGGGSEIVLTQSPATMSASPGERVTMSCSASSSVSYMHWYQQKSGLSPKRWIYDTSKLASGVPDRFSGSGSGTDYTFTISRMEPEDFATYYCQQWSSNPLTFGGGTKLEIK
notes: Recombinant humanized scFv; Any tag is not described
With B1, the EC50 in assay [1] stood at 53.2 nM.

B2: ADGRE2-A scFv (scFv)
scFv: QVQLQQSGAEVAKPGASVKLSCKASGYTFTNYWMQWIKQAPGQGLEWIGAVYPGDGDTRHTQKFKGKATLTADKSTSTAYMEVSSLRSEDTAVYYCARGFTAYGMDYWGQGTTVTVSSGGGGSGGGGSGGGGSEIVLTQSPATMSASPGERVTMSCSASSSVSYMHWYQQKSGQSPKRWIYDTSKLASGVPARFSGSGSGTDYTFTISSMEPEDFATYYCQQWSSNPLTFGGGTKLEIK
notes: as for B1
Turning to B2, the 50% effective concentration (EC50) in assay [1] was determined as 93.8 nM.

B3: ADGRE2-B scFv (scFv)
scFv: B1 scFv with V37I, T76I, V79A, S85R, E89D
notes: as for B1
B3: the EC50 in assay [1] stood at 55.3 nM.

B4: ADGRE2 scFv-Fc (purified recombinant ADGRE2-A scFv fused to Fc) (Fc fusion)
chain: B2 scFv
notes: also called ADGRE2 scFv (ADGRE2-A); not shown: Fc part (and any linker) of the scFv-Fc is not described
For the molecule B4, the binding result with ADGRE5, in the assay with ADGRE1 and in the assay with ADGRE3 was “no binding” in each case.

B5: ADGRE2-F scFv (scFv)
scFv: B1 scFv with V37I, V79A, M144L, S172P, S175A, K177R
notes: as for B1
Regarding B5, a half-maximal response in assay [1] (EC50) required 16.4 nM.

B6: ADGRE2-E scFv (scFv)
scFv: QVQLQQSGAEVKKPGASVKVSCKASGYTFTNYWMQWVRQAPGQGLEWIGAVYPGDGDTRHTQKFKGRVTMTADKSTSTVYMELSSLRSEDTAVYYCARGFTAYGMDYWGQGTLVTVSSASTGGGGSGGGGSGGGGSQIVLTQSPATLSLSPGERATLTCSASSSVSYMHWYQQKPGLSPKRWIYDTSKLASGVPDRFSGSGSGTDYTFTIRRLEPEDFATYYCQQWSSNPLTFGQGTKVEIK
notes: as for B1
As to B6, the EC50 in assay [1] turned out to be 10.6 nM.

B7: ADGRE2-D scFv (scFv)
scFv: QVQLQQSGAEVKKPGASVKVSCKASGYTFTNYWMQWVRQAPGQGLEWMGAVYPGDGDTRHTQKFKGRVTMTRDTSTSTVYMELSSLRSEDTAVYYCARGFTAYGMDYWGQGTLVTVSSASTGGGGSGGGGSGGGGSEIVLTQSPATLSLSPGERATLSCSASSSVSYMHWYQQKPGLAPRLLIYDTSKLASGIPDRFSGSGSGTDFTLTISRLEPEDFAVYYCQQWSSNPLTFGQGTKVEIK
notes: as for B1
Molecule B7 had a half-maximal effective concentration (EC50) in assay [1] of 16.4 nM.

For the origin of these results see patent publication US20220363775A1 (Memorial Sloan Kettering, published 2022).
